Measured values taken from patent publication US10428140B2, “Anti-EphA4 antibody” (EISAI R&D MANAGEMENT CO., LTD., priority 2015, dated 2019).
Residue numbers refer to the chain shown, from its start.

B1: 77 (antibody, V domains shown)
VH: QVQLVQSGSELKKPGASVKVSCKASGYTFTDYSMHWVRQAPGQGLEWMGWINTETGEPTYADDFKGRFVFSLDTSVSTAYLQISSLKAEDTAVYYCARIPLYYYGSRYWYFDVWGQGTTVTVSS
VL: DIQMTQSPSSLSASVGDRVTITCRASENIYRNLAWYQQKPGKAPKLLVYAATNLADGVPSRFSGSGSGTDYTLTISSLQPEDFATYYCQHFWGTPWTFGQGTKVEIK
modifications: synthetic humanized antibody heavy chain variable region sequence; synthetic humanized antibody light chain variable region sequence
B2: 156 (antibody, V domains shown)
VH: B1 VH with V2I, E46K, D62Q, D63G, K65T
VL: B1 VL with K45Q, V48L
modifications: synthetic humanized antibody heavy chain variable region sequence; synthetic humanized antibody light chain variable region sequence
B3: 78 (antibody, V domains shown)
VH: B1 VH with E46K
VL: B1 VL
modifications: synthetic humanized antibody heavy chain variable region sequence; synthetic humanized antibody light chain variable region sequence
B4: 136 (antibody, V domains shown)
VH: B1 VH with E46K
VL: EIVMTQSPATLSVSPGERATLSCRASENIYRNLAWYQQKPGQSPRLLIYAATNLADGIPARFSGSGSGTEYTLTISSLQSEDFAVYYCQHFWGTPWTFGQGTKVEIK
modifications: synthetic humanized antibody heavy chain variable region sequence; synthetic humanized antibody light chain variable region sequence

Tests used:
Experiment in all cases: Selectivity ELISA of humanized antibodies for human Eph receptor
Assay type in all cases: binding
[1] = biological target: T1, human EphA10 (Homo sapiens, UniProt Q5JZY3); conditions: coated protein 1 nM
T1 construct: a protein of the extracellular region of each human Eph receptor fused with the SEAP protein and the His tag; made in house; host or cells: Expi293F cells (culture supernatant)
T1 sequence (Q5JZY3 34-565 limits assumed): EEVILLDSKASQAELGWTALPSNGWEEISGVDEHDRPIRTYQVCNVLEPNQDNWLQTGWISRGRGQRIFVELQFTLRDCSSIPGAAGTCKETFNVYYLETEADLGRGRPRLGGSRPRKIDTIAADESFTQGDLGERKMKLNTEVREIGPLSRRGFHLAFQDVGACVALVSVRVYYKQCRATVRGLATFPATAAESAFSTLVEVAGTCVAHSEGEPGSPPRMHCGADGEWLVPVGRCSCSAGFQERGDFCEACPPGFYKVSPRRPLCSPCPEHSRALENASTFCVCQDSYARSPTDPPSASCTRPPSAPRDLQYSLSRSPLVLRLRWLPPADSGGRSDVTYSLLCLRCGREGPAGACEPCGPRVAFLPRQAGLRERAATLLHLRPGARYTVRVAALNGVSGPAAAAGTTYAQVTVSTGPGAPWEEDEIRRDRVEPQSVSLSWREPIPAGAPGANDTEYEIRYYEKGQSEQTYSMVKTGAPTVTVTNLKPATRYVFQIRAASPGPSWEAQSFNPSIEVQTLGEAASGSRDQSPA
Method in brief: (§1)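 Human Eph ECD-SEAP-His fusions, harvested after 5 days of Expi293F expression, are captured on anti-His-coated wells (1 nM final). Bound humanized antibody is detected with HRP anti-IgG and TMB at 450 nm.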

[2] = biological target: T2, human EphA8 (Homo sapiens, UniProt P29322); conditions: coated protein 1 nM
T2 construct: a protein of the extracellular region of each human Eph receptor fused with the SEAP protein and the His tag; made in house; host or cells: Expi293F cells (culture supernatant)
T2 sequence (P29322 28-542 limits assumed): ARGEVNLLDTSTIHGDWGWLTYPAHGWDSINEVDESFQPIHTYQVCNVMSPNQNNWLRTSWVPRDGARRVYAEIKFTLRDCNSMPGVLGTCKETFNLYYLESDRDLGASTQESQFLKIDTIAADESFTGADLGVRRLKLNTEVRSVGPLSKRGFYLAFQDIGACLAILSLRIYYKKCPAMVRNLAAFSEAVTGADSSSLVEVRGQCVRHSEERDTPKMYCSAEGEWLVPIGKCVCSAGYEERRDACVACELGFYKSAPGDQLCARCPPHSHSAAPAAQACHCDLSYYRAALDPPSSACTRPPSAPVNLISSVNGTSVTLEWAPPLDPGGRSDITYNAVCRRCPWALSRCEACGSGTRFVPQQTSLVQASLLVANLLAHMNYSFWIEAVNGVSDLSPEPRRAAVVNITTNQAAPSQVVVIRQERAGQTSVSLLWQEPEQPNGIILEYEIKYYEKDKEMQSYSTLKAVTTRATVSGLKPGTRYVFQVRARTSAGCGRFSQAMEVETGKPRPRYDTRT
Method in brief: as §1

[3] = biological target: T3, human EphA7 (Homo sapiens, UniProt Q15375); conditions: coated protein 1 nM
T3 construct: a protein of the extracellular region of each human Eph receptor fused with the SEAP protein and the His tag; made in house; host or cells: Expi293F cells (culture supernatant)
T3 sequence (Q15375 28-555 limits assumed): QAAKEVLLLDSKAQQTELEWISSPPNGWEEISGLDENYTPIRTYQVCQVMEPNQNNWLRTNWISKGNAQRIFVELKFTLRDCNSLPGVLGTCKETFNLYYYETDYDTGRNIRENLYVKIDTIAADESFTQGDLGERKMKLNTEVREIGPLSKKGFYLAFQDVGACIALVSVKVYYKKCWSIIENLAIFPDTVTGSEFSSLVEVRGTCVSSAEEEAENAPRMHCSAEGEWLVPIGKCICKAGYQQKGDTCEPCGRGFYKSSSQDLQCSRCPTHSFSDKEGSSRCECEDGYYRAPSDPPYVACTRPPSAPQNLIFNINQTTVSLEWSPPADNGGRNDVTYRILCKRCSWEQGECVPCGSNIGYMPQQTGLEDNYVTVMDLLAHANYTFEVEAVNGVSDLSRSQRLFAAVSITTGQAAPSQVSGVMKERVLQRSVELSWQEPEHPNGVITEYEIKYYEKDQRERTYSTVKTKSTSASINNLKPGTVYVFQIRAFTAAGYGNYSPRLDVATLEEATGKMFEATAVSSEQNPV
Method in brief: as §1

[4] = biological target: T4, human EphA4 (Homo sapiens, UniProt P54764); conditions: coated protein 1 nM; reference set to 100%
T4 construct: made in house; not restated for the human SEAP-His protein
Method in brief: as §1

T4 sequence (P54764 20-547): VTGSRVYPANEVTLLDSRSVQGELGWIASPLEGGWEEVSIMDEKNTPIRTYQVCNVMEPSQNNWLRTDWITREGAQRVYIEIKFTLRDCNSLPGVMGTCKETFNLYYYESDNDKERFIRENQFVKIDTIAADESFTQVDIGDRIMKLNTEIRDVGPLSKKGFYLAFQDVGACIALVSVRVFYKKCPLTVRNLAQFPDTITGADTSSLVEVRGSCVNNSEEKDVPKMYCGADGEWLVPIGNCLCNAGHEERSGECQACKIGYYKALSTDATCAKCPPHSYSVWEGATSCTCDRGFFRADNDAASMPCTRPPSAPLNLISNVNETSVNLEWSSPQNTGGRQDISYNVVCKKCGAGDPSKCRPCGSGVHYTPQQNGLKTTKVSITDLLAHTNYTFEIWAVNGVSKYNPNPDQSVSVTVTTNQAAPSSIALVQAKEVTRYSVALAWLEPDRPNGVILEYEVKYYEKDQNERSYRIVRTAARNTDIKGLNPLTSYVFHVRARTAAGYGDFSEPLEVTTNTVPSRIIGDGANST

Molecule	hEphA10-SEAP-: absorbance at 450 nm, percentage with respect to hEphA4-SEAP-His as 100% [1] [%]	hEphA8-SEAP-: absorbance at 450 nm, percentage with respect to hEphA4-SEAP-His as 100% [2] [%]	hEphA7-SEAP-: absorbance at 450 nm, percentage with respect to hEphA4-SEAP-His as 100% [3] [%]	hEphA4-SEAP-: absorbance at 450 nm, percentage with respect to hEphA4-SEAP-His as 100% [4] [%]
B1	4.5	4.8	4.3	100
B2	5.3	5.5	5.6	100
B3	5.2	5.4	5.0	100
B4	5.2	5.4	5.4	100
